In patent US20240398942A1 (CHIA TAI TIANQING PHARMACEUTICAL GROUP, published 2024) one finds EC50 and IC50 data, which are given here for six molecules.

The target in test [1] is T1, human CD40-Fc protein (human, biotinylated (sites not given) in the capture ELISA and the benchmark blocking ELISA; not biotinylated in the ligand blocking ELISA).
T1 construct: also called biotinylated human CD40-Fc
The experiment in a line: capture ELISA: antibody captured on coated goat anti-human IgG F(ab')2, biotinylated human CD40-Fc 1.15 nM, streptavidin-HRP, OD(450-630). On the procedure:
The plate was washed once with a washing buffer (PBS+0.05% v/v of Tween-20, PBST) and then blocked with 200 μL/well blocking buffer (PBST containing 5% w/v of skim milk) for 2 h at 37° C. The plate was washed 4 times, and the anti-CD40 antibody of the present application, BM1, BM2, and a negative control hIgG (human immunoglobulin for intravenous injection (pH 4), Hualan Biological Engineering Inc.) serially 5-fold diluted from 66.7 nM in a PBST containing 2.5% w/v of skim milk was added at 100 μL per well. The plate was incubated for 40 min at 37° C. and washed 4 times. A biotinylated human CD40-Fc protein (amino acid residues 21-193 of SEQ ID NO: 30 linked to the N terminus of amino acid residues 99-330 of SEQ ID NO: 28, dissolved in PBST containing 2.5% w/v of skim milk at a concentration of 1.15 nM) was added at 100 μL/well to a 96-well plate coated with the anti-CD40 antibody. The plate was incubated at 37° C. for 40 min and washed 4 times. An HRP-labeled streptavidin (diluted at 1:10000 in PBST, Jackson Immuno Research, Cat. No. 016-030-084) was added at 100 μL/well, and the plate was incubated at 37° C. for another 40 min. After the last wash, 100 μL/well of ELISA substrate TMB (Innoreagents, Cat. No. TMB-S-002) was added and the plate was incubated at room temperature. After 3-10 min, the reaction was stopped by adding 1 M H₂SO₄ at 50 µL/well, and the absorbance of each well was read on a microplate reader using the dual wavelength mode (TMB detection wavelength: 450 nm, reference wavelength: 630 nm). Curves of OD(450-630) values vs. antibody concentration were plotted. Data were analyzed using Graphpad Prism software, and EC₅₀ values were obtained.

The target of test [2] is T2, full-length human CD40 on 293T-NF-κB-Luc-CD40 reporter cells (human, UniProt P25942 21-277).
T2 construct: Stably expressed full-length human CD40; also called uniprot P25942-1
The experiment in a line: flow cytometry (FACS) on 293T-CD40 cells stably expressing full-length human CD40, PE-labeled goat anti-human IgG Fc, MFI. As to the method:
The binding of the anti-CD40 antibody to 293T-CD40 cells (prepared by Biosion) that stably express full-length human CD40 (uniprot #P25942-1, SEQ ID NO: 30) on the cell membrane was measured by flow cytometry (FACS). According to the instructions of lipofectamine 3000 transfection reagent (Thermo Fisher), 293T-CD40 cells were prepared by transfecting 293T cells with pCMV-T-P plasmid inserted with CD40 coding sequence between EcoRI and XbaI loci. Specifically, 293T-CD40 cells were harvested from cell culture flasks, washed twice, and resuspended in FACS buffer (phosphate buffered saline (PBS) containing 2% v/v of fetal bovine serum). The anti-CD40 antibody of the present application or the benchmark serially 4-fold diluted in the FACS buffer from 80 nM was added at 100 μL/well to a 96-well plate containing 2×10⁵ cells/well. The plate was incubated in an ice bath for 40 min. After the cells were washed twice with the FACS buffer, an affinity-purified R-phycoerythrin-labeled goat anti-human IgG (Fcγ fragment-specific, Jackson Immuno Research, Cat. No. 109-115-098, 1:1000 diluted in the FACS buffer) was added at 100 μL per well. After incubation at 4° C. for 40 min in the dark, the cells were washed thrice and resuspended in the FACS buffer. Fluorescence values were measured using Becton Dickinson FACS Canto II-HTS, and curves of fluorescence value vs. antibody concentration were plotted. Data were analyzed using Graphpad Prism software, and EC₅₀ values were obtained.

In test [3] the target is T1, human CD40-Fc protein. Kind of test: competitive ELISA: human CD40-Fc coated, antibody titrated, blocked ligand biotinylated human CD40L-his (95 ng/mL), streptavidin-HRP, OD(450-630). As to the method: The ability of the anti-CD40 antibody to block the binding of CD40 to CD40L was determined by competitive ELISA. Briefly, a human CD40-Fc protein (amino acid residues 21-193 of SEQ ID NO: 30 linked to the N terminus of amino acid residues 99-330 of SEQ ID NO: 28) dissolved in the immobilization buffer (carbonate/bicarbonate buffer) at a concentration of 2 μg/mL was immobilized on a 96-well plate at 100 μL/well and incubated overnight at 4° C. The next day, the plate was washed once with a washing buffer (PBS+0.05% v/v of Tween-20, PBST) before a PBST containing 5% w/v of skim milk was added. The plate was then incubated at 37° C. for 2 h for blocking. The plate was then washed 4 times with the washing buffer.
The anti-CD40 antibody of the present application or the benchmark was serially 5-fold diluted from 200 nM in a PBST containing 2.5% w/v of skim milk, and the serially diluted anti-CD40 antibody or benchmark was added at 100 μL/well to a plate coated with CD40-Fc protein and incubated at 37° C. for 40 min. The plate was then washed 4 times with the washing buffer before a biotinylated human CD40L-his protein (Sino Biological Inc., Cat. No. 10239-H08E, 95 ng/mL) was added at 100 μL per well. The plate was then incubated for 40 min at 37° C. The plate was washed again with the washing buffer. Then, an HRP-labeled streptavidin (Jackson Immunoresearch, Cat. No. 016-030-084, 1:10000 diluted in PBST buffer) was added at 100 μL/well and the plate was incubated at 37° C. for 40 min. The plate was washed again with the washing buffer. Finally, TMB was added and the reaction was stopped by adding 1 M H₂SO₄. The absorbance of each well was read on a microplate reader using the dual wavelength mode (TMB detection wavelength: 450 nm, reference wavelength: 630 nm). Curves of OD(450-630) values vs. antibody concentration were plotted. Data were analyzed using Graphpad Prism software, and IC₅₀ values were obtained.

B1: mouse anti-CD40 monoclonal antibody C1H1 (antibody, V domains shown)
VH: EVKLVESGGGLVKPGASLKLSCAASGFTFSNYGISWVRQTSDKRLEWVASISSGGDNTYYPDNVKGRFTISRENAKNTLYLQMSSLKSEDTALYYCARAGEKAMDYWGQGTSVTVSS
VL: DIVLTQSPVTLSVTPGDSVSLSCRASQTINNNLHWYQQKSHESPRLLIKYASQSISGIPSRFSGSGSGTDFTLSINSVETEDFGIYFCQQFSSWPLTFGAGTKLELK
notes: Parent mouse antibody from a hybridoma; the mouse constant regions are not; also called Mouse C1H1
Take B1: the EC50 with human CD40-Fc protein [1] was 0.141 nM; in test [2], 1.44 nM. Moreover, the IC50 with human CD40-Fc protein [3] came out at 6.46 nM.

B2: chimeric antibody C1H1 (antibody, human IgG1, kappa, V domains shown)
VH: EVKLVESGGGLVKPGASLKLSCAASGFTFSNYGISWVRQTSDKRLEWVASISSGGDNTYYPDNVKGRFTISRENAKNTLYLQMSSLKSEDTALYYCARAGEKAMDYWGQGTSVTVSS
VL: DIVLTQSPVTLSVTPGDSVSLSCRASQTINNNLHWYQQKSHESPRLLIKYASQSISGIPSRFSGSGSGTDFTLSINSVETEDFGIYFCQQFSSWPLTFGAGTKLELKR
notes: also called Chimeric C1H1
For the molecule B2, the 50% effective concentration (EC50) stood at 0.198 nM in the test with human CD40-Fc protein [1] and 2.13 nM in test [2]. For the same molecule, the IC50 with human CD40-Fc protein [3] worked out at 6.97 nM.

B3: BM2 (selicrelumab) (antibody, human IgG2, kappa, V domains shown)
VH: not shown
VL: DIQMTQSPSSVSASVGDRVTITCRASQGIYSWLAWYQQKPGKAPNLLIYTASTLQSGVPSRFSGSGSGTDFTLTISSLQPEDFATYYCQQANIFPLTFGGGTKVEIKR
notes: Benchmark antibody, prepared in-house; also called CD40-BM2; benchmark
On to B3, for which the values for the EC50 (with human CD40-Fc protein [1]; in test [2]) were 0.72 nM and 3.52 nM, respectively. Further, the IC50 with human CD40-Fc protein [3] came out at 7.22 nM.

B4: humanized antibody huC1H1-V1 (antibody, human IgG2, kappa, V domains shown)
VH: EVQLVESGGGLVKPGGSLRLSCAASGFTFSNYGISWVRQAPGKGLEWVASISSGGDNTYYPDNVKGRFTISRDNAKNSLYLQMNSLRAEDTAVYYCARAGEKAMDYWGQGTLVTVSS
VL: EIVLTQSPATLSLSPGERATLSCRASQTINNNLHWYQQKPGQAPRLLIKYASQSISGIPARFSGSGSGTDFTLTISSLEPEDFAVYFCQQFSSWPLTFGGGTKVEIKR
notes: Human IgG2 / kappa
In the case of B4, the values for the EC50 (in the test with human CD40-Fc protein [1]; in test [2]) were 0.574 nM and 4.95 nM, respectively. In addition, the IC50 in the test with human CD40-Fc protein [3] was 7.91 nM.

B5: humanized antibody huC1H1-V2 (antibody, human IgG2, kappa, V domains shown)
VH: EVQLVESGGGLVKPGGSLRLSCAASGFTFSNYGISWVRQAPGKGLEWVSSISSGGDNTYYPDNVKGRFTISRDNAKNSLYLQMNSLRAEDTAVYYCARAGEKAMDYWGQGTLVTVSS
VL: EIVLTQSPATLSLSPGERATLSCRASQTINNNLHWYQQKPGQAPRLLIKYASQSISGIPARFSGSGSGTDFTLTISSLEPEDFAVYFCQQFSSWPLTFGGGTKVEIKR
notes: Human IgG2 / kappa
Regarding B5, the figures for the EC50 (with human CD40-Fc protein [1]; in test [2]) were 0.424 nM and 4.64 nM, respectively. Besides, the concentration for half-maximal inhibition (IC50) with human CD40-Fc protein [3] amounted to 6.1 nM.

B6: BM1 (dacetuzumab) (antibody, human IgG1, kappa, V domains shown)
VH: EVQLVESGGGLVQPGGSLRLSCAASGYSFTGYYIHWVRQAPGKGLEWVARVIPNAGGTSYNQKFKGRFTLSVDNSKNTAYLQMNSLRAEDTAVYYCAREGIYWWGQGTLVTVSS
VL: DIQMTQSPSSLSASVGDRVTITCRSSQSLVHSNGNTFLHWYQQKPGKAPKLLIYTVSNRFSGVPSRFSGSGSGTDFTLTISSLQPEDFATYFCSQTTHVPWTFGQGTKVEIKR
notes: Benchmark antibody, prepared in-house; also called CD40-BM1; benchmark
In the case of B6, the EC50 in the test with human CD40-Fc protein [1] is 0.101 nM; in test [2] it was 0.375 nM. Further, the IC50 with human CD40-Fc protein [3] amounted to 2.01 nM.
